{
  "source": "patent US12667625B2",
  "about": "“Antibody-drug conjucates and their uses for the treatment of cancer” (INATHERYS, priority 2018, dated 2026)",
  "molecules": {"B1": {"name": "A24: murine monoclonal anti-human TfR antibody as disclosed in WO 2005/111082 (antibody, listed as Homo sapiens, V domains shown)", "VH": "QIQLVQSGPELKKPGETVKISCKASGYTFTNQGMNWVKQAPGKGLKWMGWINTYTGEPINADDFKGRFAISLETSASTAYLQINNLKNEDMATYFCVREGWDSMDYWGQGTSVTVSS", "VL": "QIVLTQSPAIMSASPGEKVTITCSASSSVNYMHWFQQKPGTSPKLWIYSTSNLASGVPARFSGSGSGTSYSLTISRMEAEDAATYYCQQRSSYPLTFGAGTKLELKR"}},
  "key": {"MEC-1 cell line (CD71+)": {"system": "MEC-1 cell line (CD71+)", "test": "Comparative binding on MEC-1 cell line by flow cytometry", "details": "biotinylated antibodies, serial dilutions 5 to 0.05 ug/mL, streptavidin Alexa F488", "protocol": "(§1) Serial dilutions (5 to 0.05 ug/mL) of both biotinylated antibodies (antibody A24 and antibody of ADC INA01-SDV1) were performed and incubated on THP-1 and MEC-1 cell lines. The binding of the diluted antibodies was detected by Flow cytometry using streptavidin Alexa F488 (available at ThermoFisher scientific)."}, "THP-1 cell line (CD71+)": {"system": "THP-1 cell line (CD71+)", "test": "Comparative binding on THP-1 cell line by flow cytometry", "details": "biotinylated antibodies, serial dilutions 5 to 0.05 ug/mL, streptavidin Alexa F488", "protocol": "as §1"}},
  "data": [
    {"molecule": "B1", "values": [
      {"measurement": "affinity to the CD71+ cell line (binding)", "setting": "MEC-1 cell line (CD71+)", "value": "identical affinity"},
      {"measurement": "affinity to the CD71+ cell line (binding)", "setting": "THP-1 cell line (CD71+)", "value": "identical affinity"}
    ]}
  ]
}
